How the values were obtained:
[1] = target: T1, human C1s (human); experiment: SPR pH 5.8 37C
T1 chain: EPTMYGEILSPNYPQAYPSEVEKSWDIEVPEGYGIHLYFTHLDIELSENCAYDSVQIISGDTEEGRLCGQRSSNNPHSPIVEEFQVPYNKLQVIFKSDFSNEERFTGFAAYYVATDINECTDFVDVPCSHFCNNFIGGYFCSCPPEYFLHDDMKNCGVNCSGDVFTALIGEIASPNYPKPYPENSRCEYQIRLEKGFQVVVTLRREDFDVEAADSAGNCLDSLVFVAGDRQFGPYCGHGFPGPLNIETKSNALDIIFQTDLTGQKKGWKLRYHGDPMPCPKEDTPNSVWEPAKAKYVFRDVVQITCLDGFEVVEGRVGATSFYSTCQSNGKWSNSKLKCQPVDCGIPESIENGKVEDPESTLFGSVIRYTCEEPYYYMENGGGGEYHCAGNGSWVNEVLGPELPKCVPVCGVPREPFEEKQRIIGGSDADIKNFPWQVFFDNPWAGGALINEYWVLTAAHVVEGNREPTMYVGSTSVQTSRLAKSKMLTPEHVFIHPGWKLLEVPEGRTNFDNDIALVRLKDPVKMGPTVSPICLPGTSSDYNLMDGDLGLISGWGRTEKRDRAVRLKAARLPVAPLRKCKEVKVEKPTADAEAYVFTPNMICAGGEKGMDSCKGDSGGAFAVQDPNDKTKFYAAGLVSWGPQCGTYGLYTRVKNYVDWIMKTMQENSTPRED

[2] = target: T1, human C1s; experiment: SPR pH 5.8 37C
[3] = target: T1, human C1s; experiment: SPR pH 7.4 37C
[4] = target: T1, human C1s; experiment: SPR pH 7.4 37C
[5] = target: T1, human C1s; experiment: SPR pH 7.4 37C
[6] = target: T1, human C1s; experiment: SPR pH 5.8 low Ca 37C
[7] = target: T1, human C1s; experiment: SPR pH 5.8 37C
[8] = target: T1, human C1s; experiment: SPR pH 7.4 37C
[9] = target: T1, human C1s; experiment: SPR pH 5.8 low Ca 37C, low response
[10] = target: T1, human C1s; experiment: SPR pH 7.4 37C
[11] = target: T1, human C1s; experiment: SPR pH 5.8 37C
[12] = target: T1, human C1s; experiment: SPR pH 5.8 low Ca 37C, low response
[13] = target: T1, human C1s; experiment: SPR pH 5.8 37C, low response
[14] = target: T1, human C1s; experiment: SPR pH 7.4 37C, low response
[15] = target: T1, human C1s; experiment: SPR pH 5.8 37C, low response

B1: IPN009VH2/IPN009VK3 (antibody, V domains shown)
VH: EVMLVESGGGLVKPGGSLRLSCAASGFTFSNYAMSWVRQAPGKGLEWVATISSGGSHTYYLDSVKGRFTISRDNSKDTLYLQMNSLRAEDTALYYCARLFTGYAMDYWGQGTLVTVSS
VL: QIVLTQSPATLSLSPGERATLSCTASSSVSSSYLHWYQQKPGKAPKLWIYSTSNLASGVPSRFSGSGSGTDYTLTISSLQPEDFATYYCHQYYRLPPITFGQGTKLEIK
B1 showed a Kd [1] of 0.164 nM, a Kd [2] of 0.449 nM and a Kd [3] of 1.24 nM. The Kd [4] was 1.19 nM, the Kd [5] was 0.824 nM and the Kd [6] was 3.37 nM.

B2: IPN92H0288/IPN93L0058 (antibody, V domains shown)
VH: EVMLVESGGGLVKPGGSLRLSCAASGFTFSNYAMSWVRQAPGKGLEWVATISSGGSHTYELDSVDGRFTISRDNSKDTLYLQMNSLRAEDTALYYCARLFTKHAMDYWGQGTLVTVSS
VL: QIVLTQSPATLSLSPGERATLSCTASSEVSSSYLHWYQQKPGKAPKLWIYSTSNLASGVPSRFSGSGSGTDYTLTISSLQPEDFATYYCHQYYRLHPITFGQGTKLEIK
B2 gave a Kd [7] of 19.5 nM, a Kd [2] of 40.1 nM and a Kd [8] of 0.838 nM. It also gave a Kd [4] of 0.611 nM and a Kd [9] of 7.96 nM.

B3: IPN009VH2/IPN93L0024 (antibody, V domains shown)
VH: EVMLVESGGGLVKPGGSLRLSCAASGFTFSNYAMSWVRQAPGKGLEWVATISSGGSHTYYLDSVKGRFTISRDNSKDTLYLQMNSLRAEDTALYYCARLFTGYAMDYWGQGTLVTVSS
VL: QIVLTQSPATLSLSPGERATLSCTASSSVSSSYLHWYQQKPGKAPKLWIYSTSNLASGVPSRFSGSGSGTDYTLTISSLQPEDFATYYCHQYYRLHPITFGQGTKLEIK
Binder B3 has a Kd [1] of 3.87 nM, a Kd [2] of 4.32 nM and a Kd [4] of 3.4 nM. The Kd [5] was 2.46 nM and the Kd [6] was 22.3 nM.

B4: IPN92H0033/IPN93L0024 (antibody, V domains shown)
VH: EVMLVESGGGLVKPGGSLRLSCAASGFTFSNYAMSWVRQAPGKGLEWVATISSGGSHTYYLDSVKGRFTISRDNSKDTLYLQMNSLRAEDTALYYCARLFTGHAMDYWGQGTLVTVSS
VL: QIVLTQSPATLSLSPGERATLSCTASSSVSSSYLHWYQQKPGKAPKLWIYSTSNLASGVPSRFSGSGSGTDYTLTISSLQPEDFATYYCHQYYRLHPITFGQGTKLEIK
With B4 the Kd [10] was 2.9 nM, the Kd [2] was 11.9 nM and the Kd [11] was 8.66 nM. The Kd [4] was 2.51 nM and the Kd [12] was 5.3 nM.

B5: IPN92H0307/IPN93L0058 (antibody, V domains shown)
VH: EVMLVESGGGLVKPGGSLRLSCAASGFEFENYAMSWVRQAPGKGLEWVATISSGGSHTYELDSVDGRFTISRDNSKDTLYLQMNSLRAEDTALYYCARLFTKHAMDYWGQGTLVTVSS
VL: QIVLTQSPATLSLSPGERATLSCTASSEVSSSYLHWYQQKPGKAPKLWIYSTSNLASGVPSRFSGSGSGTDYTLTISSLQPEDFATYYCHQYYRLHPITFGQGTKLEIK
B5 showed a Kd [7] of 19.5 nM, a Kd [2] of 38.1 nM and a Kd [8] of 1.93 nM. The Kd [4] was 1.34 nM and the Kd [9] was 4.95 nM.

B6: IPN009VH2/IPN93L0021 (antibody, V domains shown)
VH: EVMLVESGGGLVKPGGSLRLSCAASGFTFSNYAMSWVRQAPGKGLEWVATISSGGSHTYYLDSVKGRFTISRDNSKDTLYLQMNSLRAEDTALYYCARLFTGYAMDYWGQGTLVTVSS
VL: QIVLTQSPATLSLSPGERATLSCTASSSVSSSYLHWYQQKPGKAPKLWIYSTSNLASGVPSRFSGSGSGTDYTLTISSLQPEDFATYYCHQHYRLPPITFGQGTKLEIK
B6 was tested, and the Kd [1] was 3.21 nM, the Kd [2] was 4.34 nM and the Kd [4] was 2.92 nM. It also gave a Kd [5] of 2.68 nM and a Kd [6] of 9.54 nM.

B7: IPN92H0033/IPN93L0031 (antibody, V domains shown)
VH: EVMLVESGGGLVKPGGSLRLSCAASGFTFSNYAMSWVRQAPGKGLEWVATISSGGSHTYYLDSVKGRFTISRDNSKDTLYLQMNSLRAEDTALYYCARLFTGHAMDYWGQGTLVTVSS
VL: QIVLTQSPATLSLSPGERATLSCTASSSVSSSYLHWYQQKPGKAPKLWIYSTSNLASGVPSRFSGSGSGTDYTLTISSLQPEDFATYYCHQYHRHHPITFGQGTKLEIK
B7 gave a Kd [13] of 2.59 nM, a Kd [14] of 3.59 nM and a Kd [12] of 13.9 nM.

B8: IPN009VH2/IPN93L0031 (antibody, V domains shown)
VH: EVMLVESGGGLVKPGGSLRLSCAASGFTFSNYAMSWVRQAPGKGLEWVATISSGGSHTYYLDSVKGRFTISRDNSKDTLYLQMNSLRAEDTALYYCARLFTGYAMDYWGQGTLVTVSS
VL: QIVLTQSPATLSLSPGERATLSCTASSSVSSSYLHWYQQKPGKAPKLWIYSTSNLASGVPSRFSGSGSGTDYTLTISSLQPEDFATYYCHQYHRHHPITFGQGTKLEIK
For B8, the Kd [13] was 23.9 nM, the Kd [14] was 0.168 nM and the Kd [12] was 4960 nM.

B9: IPN92H0033/IPN009VK3 (antibody, V domains shown)
VH: EVMLVESGGGLVKPGGSLRLSCAASGFTFSNYAMSWVRQAPGKGLEWVATISSGGSHTYYLDSVKGRFTISRDNSKDTLYLQMNSLRAEDTALYYCARLFTGHAMDYWGQGTLVTVSS
VL: QIVLTQSPATLSLSPGERATLSCTASSSVSSSYLHWYQQKPGKAPKLWIYSTSNLASGVPSRFSGSGSGTDYTLTISSLQPEDFATYYCHQYYRLPPITFGQGTKLEIK
Work on B9 yielded a Kd [1] of 0.515 nM, a Kd [2] of 0.931 nM and a Kd [4] of 1.01 nM. It also gave a Kd [5] of 0.79 nM and a Kd [6] of 9.57 nM.

B10: IPN92H0033/IPN93L0021 (antibody, V domains shown)
VH: EVMLVESGGGLVKPGGSLRLSCAASGFTFSNYAMSWVRQAPGKGLEWVATISSGGSHTYYLDSVKGRFTISRDNSKDTLYLQMNSLRAEDTALYYCARLFTGHAMDYWGQGTLVTVSS
VL: QIVLTQSPATLSLSPGERATLSCTASSSVSSSYLHWYQQKPGKAPKLWIYSTSNLASGVPSRFSGSGSGTDYTLTISSLQPEDFATYYCHQHYRLPPITFGQGTKLEIK
B10 gave a Kd [10] of 1.92 nM, a Kd [11] of 5.01 nM and a Kd [12] of 7.59 nM.

B11: IPN92H0288/IPN93L0211 (antibody, V domains shown)
VH: EVMLVESGGGLVKPGGSLRLSCAASGFTFSNYAMSWVRQAPGKGLEWVATISSGGSHTYELDSVDGRFTISRDNSKDTLYLQMNSLRAEDTALYYCARLFTKHAMDYWGQGTLVTVSS
VL: QIVLTQSPATLSLSPGERATLSCTASSEVSESYLHWYQQKPGKAPKLWIYSTSNLASGVPSRFSGSGSGTDYTLTISSLQPEDFATYYCHQYYRLHPITFGQGTKLEIK
B11 gave a Kd [2] of 83.1 nM, a Kd [8] of 1.67 nM and a Kd [4] of 1.11 nM. The Kd [15] was 16.5 nM and the Kd [9] was 10.4 nM.

B12: IPN92H0012/IPN009VK3 (antibody, V domains shown)
VH: EVMLVESGGGLVKPGGSLRLSCAASGFTFSNYAMSWVRQAPGKGLEWVATHSSGGSHTYYLDSVKGRFTISRDNSKDTLYLQMNSLRAEDTALYYCARLFTGYAMDYWGQGTLVTVSS
VL: QIVLTQSPATLSLSPGERATLSCTASSSVSSSYLHWYQQKPGKAPKLWIYSTSNLASGVPSRFSGSGSGTDYTLTISSLQPEDFATYYCHQYYRLPPITFGQGTKLEIK
B12 gave a Kd [3] of 10.5 nM.

From patent US12084513 (dated 2024)
